Laboratory results published in article PMC4932549, “Feasibility of Multiple Examinations Using ^68Ga-Labelled Collagelin Analogues: Organ Distribution in Rat for Extrapolation to Human Organ and Whole-Body Radiation Dosimetry” (Pharmaceuticals, 2016).
Positions of bridges follow the written chain, without caps; N, C: chain ends. Residues, ends and D or L forms follow the SMILES beside them. *: point of attachment. NODAGA = O=C(O)CN1CCN(CC(=O)O)CCN(C(CCC(=O)*)C(=O)O)CC1; NOTA = O=C(O)CN1CCN(CC(=O)O)CCN(CC(=O)*)CC1; AEEA = NCCOCCOCC(=O)O

Columns and labels:
[1] = set-up: species or system human; conditions: in vivo
Experimental: Human organ and total body absorbed and effective dose estimates were calculated according to the Medical Internal Radionuclide Dose (MIRD) procedure using the measured residence times and the dose rate S-values. The SUV values in rat were first multiplied with the appropriate radioactivity decay factor dependent on the time point of the data post-injection, then multiplied by standard organ masses and divided by the standard total-body weight for the standard adult man phantom obtained from the OLINDA/EXM 1.1 software (Organ Level Internal Dose Assessment Code, Vanderbilt University, Nashville, TN, USA, 2007). The values obtained correspond to the fraction of injected radioactivity (%IA) per organ in man as a function of time (Equation (2), where SUVA is the SUVs of rat organs; gorgan and kgTBweight are respectively the standard organ weight and standard total body weight of a human). (2) (%IAOrgan)human=SUVA×(gorgan/kgTBweight)human
The cumulative radioactivity for the organs was determined by integrating the area under the time-radioactivity curves for each organ using trapezoidal approximation of the collected kinetic data, followed by extrapolation of remaining points from the last time point to infinity by a single exponential fit. The residence time for each organ is equal to the number of disintegrations (MBq × h/MBq). Bone marrow residence time was assessed according to the bone marrow blood model. The residence time for the remaining carcass was calculated in the same way as for the other organs, and this value was used as input in the OLINDA software as “remainder”. The “remainder” of the body residence time was calculated from SUV due to radioactivity measured in the rest of the body after the removal of the source organs and tail. The difference between the theoretical residence time and the calculated residence time of the source organs plus the remainder of the body was assumed to have been in the tail or excreted. The kidney absorbed dose was calculated based on a multi-region kidney model phantom. The total target organ absorbed dose (D) is contributed by all source organs and is expressed by Equation (3), where Ã is the time-integrated radioactivity in the source tissue (rS) and S is the radionuclide-specific dose rate values: (3) D(rT,t)=∑rSÃ(rS,t)×S(rT←rS,t)
The similarity of the biodistribution pattern in human and rat and the homogeneous distribution of radioactivity throughout the organ were two basic assumptions considered when extrapolating rat biodistribution data to the human species for the calculation of the absorbed and total effective doses. The organ distribution study was conducted for 120 min. The residence time was determined using the trapezoidal rule, wherein the area from the injection time to the termination time was calculated. […] The values were higher for male animals. This is because the residence time is integrated over the entire tissue using the standardized human dosimetry model of organ volumes, where in the human male model, the muscle volume is around 1.65-times higher than that in the female model (28 vs. 17 kg), and the male model blood volume (5.5 L) is almost 1.5 larger than in the female model (3.8 L). The other tissues are also larger in the male model, but to a lesser extent. During the calculation of the absorbed dose in each tissue (mSv/MBq) by OLINDA, the values are again divided with each tissue’s volume, providing final dose values.
Absorbed doses and total effective doses were calculated using residence time values as the input into OLINDA/EXM 1.1, the MIRD scheme of an adult (70 kg) and recommended tissue weighting factors from the International Commission on Radiological Protection (ICRP, 2007). The absorbed doses (mGy/MBq) and total effective doses (mSv/MBq) obtained from OLINDA/EXM 1.1 calculations are presented in Table 2. […]

in vivo = conditions: rat; for SUV / SUV at 2 h: both sexes, Sprague-Dawley, total radioactivity; for SUV / SUV at 2 h / Uptake in most of the organs (SUV): iv; for SUV at 2 h: Uptake within 120 min in blood, heart, lung, pancreas, adrenal gland, small intestine, large intestine, testis, muscle and brain (SUV)
Experimental: Animal studies were performed using healthy female and male Sprague–Dawley rats: one male and one female animal per time point and tracer (Table 1). The animal experiments were approved by the local Ethics Committee for Animal Research and performed in accordance with local institutional and Swedish national rules and regulations. The animals were kept at a constant temperature (20 °C) and humidity (50%) in a 12-h light-dark cycle and given free access to food and water.
(§1) [^68Ga]Ga-NO2A-Col or [^68Ga]Ga-NODAGA-Col was injected into the tail vein of rats as a bolus with 500 µL phosphate-buffered saline (pH 7.4) as the vehicle (Table 1). The injected amount of the peptides was 0.8 ± 0.2 nanomoles. The animals were euthanized by a CO2–O2 mixture at 5, 10, 20, 40, 60 and 120 min post-injection. The radioactivity of the excised organs was measured in a well-type NaI(Tl) scintillation counter, applying correction for dead-time and radioactivity decay. The weight of the tissues was determined simultaneously. The remaining carcass was also measured in order to monitor the radioactivity elimination and recovery. Samples from blood, heart, lung, liver, spleen, adrenal glands, kidneys, intestines, with or without contents, muscle, testis, bone, brain, pancreas, urine bladder and bone marrow were collected. The radioactivity readings were decay-corrected to the time of the injection, and the results were expressed as standardized uptake values (SUV; Equation (1)), where the radioactivity of an organ and injected radioactivity was expressed in MBq, and the weight of a rat and organ was expressed in g. (1) SUV=Radioactivityorgan×weightrat/Radioactivityinjected×weightorgan

[2] = rat, in vivo, iv
Experimental: as §1, with “SUV=Radioactivityorgan×weightrat/Radioactivityinjected×weightorgan […]” for “SUV=Radioactivityorgan×weightrat/Radioactivityinjected×weightorgan”

[3] = Uptake in most of the vital organs, including heart and lung (SUV)
[4] = Uptake in small and large intestines (SUV)

Row | SMILES | Effective dose per administration [1] | Estimated absorbed dose, Breasts [1] | Estimated absorbed dose, Uterus [1] | Highest organ absorbed dose (kidneys) [1] | Kidney absorbed dose as share of maximum allowed dose of 50 mGy to a single organ [1] | PET examinations per year before reaching the red marrow limiting dose [1] | Radioactivity before reaching the red marrow limiting dose [1] | Radioactivity that could be administered per year if limited by kidney dose [1] | Total dose per examination (PET plus CT) [1] | SUV (in vivo; Kidney uptake (SUV)) | SUV (in vivo; [3]) | SUV (in vivo; [4]) | SUV (in vivo; Uptake in the brain (SUV)) | SUV at 2 h (in vivo) | Uptake in most of the organs (SUV) (in vivo) | Share of radioactivity accounted for by the single exponential blood clearance phase [2] | other results
1 | CSCC[C@@H]1NC(=O)[C@H](C(C)C)NC(=O)[C@H](CCCNC(=N)N)NC(=O)CNC(=O)[C@@H]2CCCN2C(=O)[C@@H](NC(=O)COCCOCCNC(=O)CN2CCN(CC(=O)O)CCN(CC(=O)O)CC2)CSSC[C@@H](C(=O)O)NC(=O)[C@@H]2CCCN2C(=O)CNC(=O)[C@H](CCC(=O)O)NC(=O)[C@H](CC(=O)O)NC(=O)[C@H](CC(=O)O)NC(=O)CNC(=O)[C@H](CC(C)C)NC(=O)[C@H](Cc2c[nH]cn2)NC(=O)[C@H](CC(C)C)NC(=O)CNC(=O)[C@H](Cc2c[nH]cn2)NC1=O [[^68Ga]Ga-NO2A-Col, metal not drawn] ({NOTA-AEEA}-CPGRVMHGLHLGDDEGPC-OH; disulfide 1-18) | 0.78–1.64 mSv | 0.016 mGy/MBq | 0.019 mGy/MBq | 0.1 mGy/MBq | about 20% | over 1000 | over 200 GBq | over 1460 MBq | 1.78–2.64 | > 10 SUV | < 0.5 SUV | < 0.1 SUV | < 0.01 SUV | < 0.1 SUV | below one | over 98% | Absorbed dose in liver and spleen relative to [^68Ga]Ga-NODAGA-Col [1]: two-fold lower; Estimated absorbed dose, Adrenals [1]: 0.009 mGy/MBq
2 | CSCC[C@@H]1NC(=O)[C@H](C(C)C)NC(=O)[C@H](CCCNC(=N)N)NC(=O)CNC(=O)[C@@H]2CCCN2C(=O)[C@@H](NC(=O)COCCOCCNC(=O)CCC(C(=O)O)N2CCN(CC(=O)O)CCN(CC(=O)O)CC2)CSSC[C@@H](C(=O)O)NC(=O)[C@@H]2CCCN2C(=O)CNC(=O)[C@H](CCC(=O)O)NC(=O)[C@H](CC(=O)O)NC(=O)[C@H](CC(=O)O)NC(=O)CNC(=O)[C@H](CC(C)C)NC(=O)[C@H](Cc2c[nH]cn2)NC(=O)[C@H](CC(C)C)NC(=O)CNC(=O)[C@H](Cc2c[nH]cn2)NC1=O (some centres unmarked) [[^68Ga]Ga-NODAGA-Col, metal not drawn] ({NODAGA-AEEA}-CPGRVMHGLHLGDDEGPC-OH; disulfide 1-18) | 0.78–1.64 mSv | 0.016 mGy/MBq | 0.019 mGy/MBq | 0.1 mGy/MBq | ~21% | over 1000 | over 200 GBq | over 1460 MBq | 1.78–2.64 | > 10 SUV | < 0.5 SUV | < 0.1 SUV | < 0.01 SUV | < 0.1 SUV | below one | over 98% | Estimated absorbed dose, Brain [1]: 0.002 mGy/MBq; Estimated absorbed dose, Spleen [1]: 0.011 mGy/MBq; Increase of liver residence time/absorbed dose versus [^68Ga]Ga-NO2A-Col [1]: 100%; Radioactivity that stayed in liver and spleen (in vivo): Over 85%
